Measured values reported in patent US20230220005A1, “S100A8-INHIBITING PEPTIDE AND DISEASE THERAPEUTIC AGENT CONTAINING SAME” (TOKYO WOMEN'S MEDICAL UNIVERSITY, priority 2020, published 2023).
Ends that are not written are not given here.

Legend:
[1] = target: T1, binding of S100A8 to TLR4/MD-2 complex (Homo sapiens, UniProt O00206+Q9Y6Y9); assay: Competition ELISA: binding of S100A8 to TLR4/MD-2 complex; conditions: for competitive inhibitory activity on binding of S100A8 to TLR4/MD-2 complex, candidate peptides: chain length screening candidates, FIG. 7(B); for competitive activity in competition assay, divalent and tetravalent peptides: FIG. 8
T1 sequence (O00206 24-631 limits assumed): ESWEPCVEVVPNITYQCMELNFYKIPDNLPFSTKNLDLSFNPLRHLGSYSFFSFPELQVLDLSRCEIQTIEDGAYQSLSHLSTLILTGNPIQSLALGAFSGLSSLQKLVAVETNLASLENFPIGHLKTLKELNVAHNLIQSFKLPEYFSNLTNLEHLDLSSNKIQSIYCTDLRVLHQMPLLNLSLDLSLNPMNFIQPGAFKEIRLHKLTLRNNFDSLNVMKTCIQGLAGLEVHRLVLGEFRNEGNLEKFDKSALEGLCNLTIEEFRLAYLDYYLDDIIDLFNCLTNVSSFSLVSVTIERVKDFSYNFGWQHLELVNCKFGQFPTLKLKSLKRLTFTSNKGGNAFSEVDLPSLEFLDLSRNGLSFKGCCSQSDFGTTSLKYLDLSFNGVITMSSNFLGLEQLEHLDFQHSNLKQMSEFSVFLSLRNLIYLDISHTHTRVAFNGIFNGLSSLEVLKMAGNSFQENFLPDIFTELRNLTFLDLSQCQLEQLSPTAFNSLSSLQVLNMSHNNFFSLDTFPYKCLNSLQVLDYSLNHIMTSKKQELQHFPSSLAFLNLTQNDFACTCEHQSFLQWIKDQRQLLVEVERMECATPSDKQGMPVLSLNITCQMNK
T1 sequence (Q9Y6Y9 19-160): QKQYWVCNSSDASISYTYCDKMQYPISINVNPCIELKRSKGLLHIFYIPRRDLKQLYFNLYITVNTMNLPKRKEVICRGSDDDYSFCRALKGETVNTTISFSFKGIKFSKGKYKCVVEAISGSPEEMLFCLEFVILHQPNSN
Description: Pre-purified S100A8 protein was immobilized on an ELISA plate. Non-specific binding was blocked with blocking buffer in the same manner as in Example 1. Peptides #1 to #6 were added simultaneously with TLR4/MD-2, and the mixture was reacted. Each well was washed with PBS-Tween 20, then incubated with an anti-TLR4 antibody (Abcam) and an anti-rabbit IgG-HRP labeled antibody (GE Healthcare) subsequently, and finally a reaction with TMB as an HRP substrate was terminated with an equivalent of 1 N sulfuric acid. Bound TLR4/MD-2 was quantified by measuring the absorbance at OD 450 nm.
(§1) In order to identify an essential region in the Peptide3A5 sequence, a series of partial sequence peptides based on the amino acid sequence of Peptide3A5, which were obtained by deleting the amino acid from the amino terminal side or the carboxyl terminal side, were spot-synthesized as divalent peptides on a cellulose membrane sheet using the method of Patent Literature 1. Several kinds of affinity peptides with high affinity to TLR4/MD-2 were obtained by reacting the sheet with TLR4/MD-2 (FIG. 7A). Candidate peptides were subjected to a competition assay similar to Example 1 (FIG. 2).
A competition assay was performed using divalent ILVIK (SEQ ID NO. 2), divalent Peptide3A5 (SEQ ID NO. 1), and tetravalent ILVIK. The tetravalent ILVIK was also synthesized using the method of Patent Literature 1.

TLR4/MD-2 [2] = target: T2, TLR4/MD-2 (Homo sapiens, UniProt O00206+Q9Y6Y9); assay: Chain length screening: divalent peptides spot-synthesized on cellulose membrane sheet reacted with TLR4/MD-2; assay type: binding; conditions: FIG. 7(A)
T2 sequence (O00206 24-631 limits assumed): as the sequence (O00206 24-631 limits assumed) above
T2 sequence (Q9Y6Y9 19-160): as the sequence (Q9Y6Y9 19-160) above
Description: as §1

TLR4/MD-2 [3] = target: T2, TLR4/MD-2; assay: ELISA: binding of TLR4/MD-2 to peptides immobilized on plate; conditions: for binding to TLR4/MD-2 of alanine-substituted peptides: alanine scanning, amino terminus acetylated, carboxyl terminus amidated, immobilized on ELISA plate, FIG. 3
Description: Furthermore, for the purpose of narrowing the binding region with the TLR4/MD-2 complex, a peptide of 10 amino acids in the carboxyl terminal amino acid sequence was synthesized. At this time, the sequence can be comprehensively analyzed by overlapping by five amino acids. The synthesized peptides were immobilized on an ELISA plate (Thermo Fisher Scientific Inc.; Maxisorp), and then non-specific binding was blocked with a blocking buffer. Each well was washed with PBS-Tween 20 and then incubated with a high-purity human TLR4/MD-2 recombinant protein, then each well was incubated with an anti-TLR4 antibody (Abcam) and an anti-rabbit IgG-HRP labeled antibody (GE Healthcare), and finally a reaction with TMB as an HRP substrate was terminated with an equivalent of 1 N sulfuric acid. The amount of bound TLR4/MD-2 was quantified by measuring the absorbance at OD 450 nm.
In addition, acetylation was introduced at the amino terminus of these peptides, and amidation modification was introduced at the carboxyl terminus. These 10 peptides were immobilized on an ELISA plate (Thermo Fisher Scientific Inc.; Maxisorp) to verify binding with TLR4/MD-2.

[4] = target: T1, binding of S100A8 to TLR4/MD-2 complex; assay: Competition by immunoprecipitation with anti-TLR4 antibody and Western blotting; conditions: 10 times the molar amount of peptide; S100A8 detected by Western blotting; FIG. 2B
Description: The TLR4/MD-2 complex and S100A8 were mixed in a tube. At this time, 10 times the molar amount of each of Peptides #1 to #6 was added, and immunoprecipitation was performed with an anti-TLR4 antibody. The immunoprecipitate was washed several times with a washing buffer, and the final pellet was electrophoresed by SDS-PAGE. Then, S100A8 and TLR4 were detected by Western blotting using an anti-S100A8 antibody and an anti-TLR4 antibody.

[5] = tested on: SW480 cells subcutaneous tumor; assay: Antitumor activity in SW480 xenograft model; assay type: in vivo; conditions: mouse, two weeks
Description: (§2) First, two weeks after transplantation of SW480 cells subcutaneously in a mouse, the size of the subcutaneous tumor was measured, and confirmed to be equivalent tumor size. The peptide was administered to the abdominal cavity at the indicated concentrations twice a week, and the size of the tumor was measured over time. After two weeks, the size of the subcutaneous tumor was measured, and the subcutaneous tumor was collected.
The divalent ILVIK was identified as an S100A8-inhibiting peptide candidate by chain length screening, and influence of the divalent ILVIK on mouse subcutaneous tumors was examined in the same manner as in Example 5 (FIG. 6). First, two weeks after transplantation of SW480 cells subcutaneously in a mouse, the size of the subcutaneous tumor is measured, and confirmed to be equivalent tumor size. The peptide was administered to the abdominal cavity at the indicated concentrations twice a week, and the size of the tumor was measured over time. After two weeks, the size of the subcutaneous tumor was measured, and the subcutaneous tumor was collected.
as §2, with “tetravalent ILVIK” for “peptide”, “concentrations (1 mg/kg, 5 mg/kg, 10 mg/kg)” for “concentrations”

[6] = tested on: IL-8 mRNA expression in human colorectal cancer SW480 cells; assay: IL-8 mRNA induction by S100A8 in SW480 cells; assay type: cell-based; conditions: SW480 cells pretreated with peptide, stimulated with S100A8 recombinant protein, after 5 hours; FIG. 4
Description: Human colorectal cancer SW480 cells express TLR4, and induce IL-8 by S100A8 stimulation. In order to verify inhibitory activity of peptides isolated so far, after pretreating divalent Peptide #3 or divalent Peptide3A5, the cells were stimulated with S100A8 recombinant protein, and the mRNA expression of IL-8 after 5 hours was analyzed. The divalent Peptide #3 and the divalent Peptide3A5 were prepared according to the method of Patent Literature 1 described above.

[7] = peptide to the abdominal cavity twice a week, FIG. 6, FIG. 9

## Phe-Gln-Glu-Phe-Ala-Ile-Leu-Val-Ile (FQEFAILVI) [SEQ ID NO: 3]
[1]
  competitive inhibitory activity on binding of S100A8 to TLR4/MD-2 complex, candidate peptides: competitive inhibitory activity
TLR4/MD-2 [2]
  affinity for TLR4/MD-2 of partial sequence peptides: high affinity

## Peptide3A7: Peptide #3 (SEQ ID NO: 13) with position 7 from the N-terminal side substituted with alanine; acetylated amino terminus, amidated carboxyl terminus (Ac-FQEFLIAVIK-NH2)
TLR4/MD-2 [3]
  binding to TLR4/MD-2 of alanine-substituted peptides: reduced

## Ile-Leu-Val-Ile-Lys (ILVIK) [SEQ ID NO: 2]
[1]
  competitive inhibitory activity on binding of S100A8 to TLR4/MD-2 complex, candidate peptides: competitive inhibitory activity
TLR4/MD-2 [2]
  affinity for TLR4/MD-2 of partial sequence peptides: high affinity

## Gln-Glu-Phe-Ala-Ile-Leu-Val (QEFAILV) [SEQ ID NO: 4]
[1]
  competitive inhibitory activity on binding of S100A8 to TLR4/MD-2 complex, candidate peptides: competitive inhibitory activity
TLR4/MD-2 [2]
  affinity for TLR4/MD-2 of partial sequence peptides: high affinity

## FQEFAILVIK [Peptide3A5]
TLR4/MD-2 [3]
  binding to TLR4/MD-2 of alanine-substituted peptides: higher affinity for TLR4/MD-2 than Peptide #3

## Peptide3A6: Peptide #3 (SEQ ID NO: 13) with position 6 from the N-terminal side substituted with alanine; acetylated amino terminus, amidated carboxyl terminus (Ac-FQEFLALVIK-NH2)
TLR4/MD-2 [3]
  binding to TLR4/MD-2 of alanine-substituted peptides: reduced

## Phe-Gln-Glu-Phe-Leu-Ile-Leu-Val-Ile-Lys (FQEFLILVIK) [Peptide #3]
TLR4/MD-2 [3]; overlapping 10 amino acid peptides immobilized on ELISA plate, FIG. 1
  affinity for TLR4/MD-2 (amount of bound TLR4/MD-2, absorbance at OD 450 nm): high affinity for TLR4/MD-2
[1]; S100A8 immobilized, peptide added simultaneously with TLR4/MD-2, FIG. 2A
  competitive inhibitory activity on the binding between S100A8 and the TLR4/MD-2 complex (ELISA): found to have competitive inhibitory activity
[4]
  competitive inhibitory activity on the binding of S100A8 to the TLR4/MD-2 complex (immunoprecipitation): had competitive inhibitory activity

## tetravalent ILVIK: tetravalent peptide containing four ILVIK sequences, synthesized using the method of Patent Literature 1
[1]
  competitive activity in competition assay, divalent and tetravalent peptides: almost the same competitive activity as the divalent ILVIK
[5]; 1 mg/kg, 5 mg/kg, 10 mg/kg to the abdominal cavity twice a week, FIG. 10
  development of subcutaneous tumor (tumor size): suppressed the development of mouse subcutaneous tumors in a concentration-dependent manner

## divalent ILVIK: divalent peptide containing two ILVIK (SEQ ID NO. 2) sequences (also: divalent linkage of two copies (linker not given here))
[1]
  competitive activity in competition assay, divalent and tetravalent peptides: almost similar competitive activity as the divalent Peptide3A5
[5]; [7]
  development of subcutaneous tumor (tumor size): suppressed the development of mouse subcutaneous tumor in a concentration-dependent manner

## divalent Peptide3A5: divalent peptide containing two Peptide3A5 (SEQ ID NO. 1) sequences, prepared according to the method of Patent Literature 1 (chain 1 FQEFAILVIK; chain 2 FQEFAILVIK; also: divalent linkage of two copies (linker not given here))
[1]; various concentrations added simultaneously with TLR4/MD-2 complex, FIG. 5
  competitive inhibitory activity, monovalent versus divalent: showed the competitive inhibitory activity at a lower concentration as compared with the monovalent type
[6]
  expression of mRNA of IL-8 induced by S100A8: remarkably inhibited
[5]; [7]
  development of subcutaneous tumor (tumor size): suppressed the development of subcutaneous tumor in mice in a concentration-dependent manner

## divalent Peptide #3: divalent peptide containing two Peptide #3 sequences, prepared according to the method of Patent Literature 1 (FQEFLILVIK)
[6]
  expression of mRNA of IL-8 induced by S100A8: remarkably inhibited

## Peptide3A10: Peptide #3 (SEQ ID NO: 13) with position 10 from the N-terminal side substituted with alanine; acetylated amino terminus, amidated carboxyl terminus (Ac-FQEFLILVIA-NH2)
TLR4/MD-2 [3]
  binding to TLR4/MD-2 of alanine-substituted peptides: reduced

## Peptide3A8: Peptide #3 (SEQ ID NO: 13) with position 8 from the N-terminal side substituted with alanine; acetylated amino terminus, amidated carboxyl terminus (Ac-FQEFLILAIK-NH2)
TLR4/MD-2 [3]
  binding to TLR4/MD-2 of alanine-substituted peptides: reduced
